This data set has as its target T1, PUS7(Δ1-98) (Homo sapiens, UniProt Q96PZ0 99-661, del1-98).
T1 sequence: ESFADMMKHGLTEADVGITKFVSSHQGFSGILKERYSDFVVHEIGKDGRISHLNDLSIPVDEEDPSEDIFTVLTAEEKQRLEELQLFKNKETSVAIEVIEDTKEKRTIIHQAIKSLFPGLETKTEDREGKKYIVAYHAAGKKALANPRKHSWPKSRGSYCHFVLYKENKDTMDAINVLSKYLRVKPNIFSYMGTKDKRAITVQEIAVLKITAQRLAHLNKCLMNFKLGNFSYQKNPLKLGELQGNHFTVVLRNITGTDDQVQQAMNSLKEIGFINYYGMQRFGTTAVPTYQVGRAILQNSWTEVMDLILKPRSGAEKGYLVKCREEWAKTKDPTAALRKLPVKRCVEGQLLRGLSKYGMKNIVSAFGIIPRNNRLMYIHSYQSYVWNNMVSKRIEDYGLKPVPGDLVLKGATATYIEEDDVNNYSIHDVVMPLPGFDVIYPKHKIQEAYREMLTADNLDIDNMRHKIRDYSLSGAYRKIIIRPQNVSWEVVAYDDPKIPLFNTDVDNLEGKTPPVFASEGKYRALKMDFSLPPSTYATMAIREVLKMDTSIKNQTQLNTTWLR
The experiment in a line: filter binding.

With GGGGCCCCAUGGUGUAAUGG (ssRNA) [18mer-cy-tRNAGln], binding was put at a Kd of 267 ± 91 nM.

The values are drawn from PMC8599909.
